# Measurements published in EP1662255A2 (THE JOHNS HOPKINS UNIVERSITY SCHOOL OF MEDICINE, dated 2006).
# T1: carboxy-terminal 347 amino acids of GKAP-3 (amino-terminal myc tag) (rat, UniProt P97838 631-977)
# T1 construct: domain: carboxy-terminal 347 amino acids; also called GKAP-3/SAPAP3 carboxy-terminus
# T1 sequence (looked up): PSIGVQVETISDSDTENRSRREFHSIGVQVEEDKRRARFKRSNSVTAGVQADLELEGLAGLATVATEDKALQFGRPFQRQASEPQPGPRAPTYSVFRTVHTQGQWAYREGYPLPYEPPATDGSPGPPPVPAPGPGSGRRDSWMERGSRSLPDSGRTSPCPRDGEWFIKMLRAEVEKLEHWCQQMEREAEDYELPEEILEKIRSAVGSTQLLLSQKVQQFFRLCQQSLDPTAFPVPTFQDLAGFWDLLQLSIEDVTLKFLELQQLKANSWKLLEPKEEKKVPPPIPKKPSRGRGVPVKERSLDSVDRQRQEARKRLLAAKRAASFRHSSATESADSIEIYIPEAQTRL
# T2: GKAP1 (native, rat brain extracts) (rat, UniProt P97836 1-992)
# T2 construct: mature
# T2 sequence (looked up): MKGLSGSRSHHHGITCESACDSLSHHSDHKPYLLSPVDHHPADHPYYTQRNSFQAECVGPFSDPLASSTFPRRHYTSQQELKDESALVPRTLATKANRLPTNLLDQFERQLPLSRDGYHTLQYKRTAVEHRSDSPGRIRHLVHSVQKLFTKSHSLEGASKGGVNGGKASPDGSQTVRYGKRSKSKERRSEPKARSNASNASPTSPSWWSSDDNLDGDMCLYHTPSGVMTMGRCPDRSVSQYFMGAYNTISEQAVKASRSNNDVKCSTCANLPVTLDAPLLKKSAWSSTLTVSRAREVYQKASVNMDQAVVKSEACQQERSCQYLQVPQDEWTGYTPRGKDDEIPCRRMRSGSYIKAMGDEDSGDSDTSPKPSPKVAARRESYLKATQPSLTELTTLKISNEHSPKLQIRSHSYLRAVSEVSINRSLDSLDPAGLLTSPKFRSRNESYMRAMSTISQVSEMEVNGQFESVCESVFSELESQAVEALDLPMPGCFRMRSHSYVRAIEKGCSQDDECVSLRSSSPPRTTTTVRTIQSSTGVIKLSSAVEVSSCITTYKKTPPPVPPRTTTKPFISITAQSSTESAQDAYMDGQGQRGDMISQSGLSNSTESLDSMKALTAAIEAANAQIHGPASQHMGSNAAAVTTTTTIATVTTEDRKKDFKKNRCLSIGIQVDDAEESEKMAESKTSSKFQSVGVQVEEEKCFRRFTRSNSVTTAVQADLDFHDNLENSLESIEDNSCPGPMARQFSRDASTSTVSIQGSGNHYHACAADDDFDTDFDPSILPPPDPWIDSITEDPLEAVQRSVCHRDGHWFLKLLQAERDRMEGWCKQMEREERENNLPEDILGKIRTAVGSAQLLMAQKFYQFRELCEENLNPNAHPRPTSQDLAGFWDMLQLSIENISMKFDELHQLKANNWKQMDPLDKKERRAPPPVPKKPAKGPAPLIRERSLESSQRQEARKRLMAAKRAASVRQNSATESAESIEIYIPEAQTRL
# B1: GRIP PDZ 4-6 (GST fusion) (other, UniProt P97879 471-754, looked up)
# chain: EVVLTADPVTGFGIQLQGSVFATETLSSPPLISYIEADSPAERCGVLQIGDRVMAINGIPTEDSTFEEANQLLRDSSITSKVTLEIEFDVAESVIPSSGTFHVKLPKKHSVELGITISSPSSRKPGDPLVISDIKKGSVAHRTGTLELGDKLLAIDNIRLDSCSMEDAVQILQQCEDLVKLKIRKDEDNSDEQESSGAIIYTVELKRYGGPLGITISGTEEPFDPIIISSLTKGGLAERTGAIHIGDRILAINSSSLKGKPLSEAIHLLQMAGETVTLKIKKQT
# notes: domain: PDZ 4-6; also called PDZ domains of GRIP; not shown: glutathione S-transferase fusion partner
# B2: SAP102 PDZ1-3 (GST fusion) (other, UniProt Q62936 149-484, looked up)
# chain: EIVLERGNSGLGFSIAGGIDNPHVPDDPGIFITKIIPGGAAAMDGRLGVNDCVLRVNEVDVSEVVHSRAVEALKEAGPVVRLVVRRRQPPPETIMEVNLLKGPKGLGFSIAGGIGNQHIPGDNSIYITKIIEGGAAQKDGRLQIGDRLLAVNNTNLQDVRHEEAVASLKNTSDMVYLKVAKPGSLHLNDMYAPPDYASTFTALADNHISHNSSLGYLGAVESKVTYPAPPQVPPTRYSPIPRHMLAEEDFTREPRKIILHKGSTGLGFNIVGGEDGEGIFVSFILAGGPADLSGELRRGDRILSVNGVNLRNATHEQAAAALKRAGQSVTIVAQYR
# notes: domain: PDZ 1-3; also called SAP102 PDZI-3; not shown: glutathione S-transferase fusion partner
# Experiments:
# [1] = molecular target: T1, carboxy-terminal 347 amino acids of …; assay: GST pulldown from HEK293 lysate
# [2] = molecular target: T2, GKAP1 (native, rat brain extracts); assay: GST pull-down from rat brain extracts
# [3] = molecular target: B1; assay: GST pulldown from extracts of heterologous cells
# [4] = molecular target: B2; assay: GST pulldown from extracts of heterologous cells
binder,measurement,setting,value
B1,binding result,[1],no binding
B2,binding result,[1],no binding
"GST-GKAP(carboxy-terminal) (other, UniProt P97836-5 591-666, looked up, domain: carboxy-terminal 76 amino acids; also called carboxy-terminal 76 amino acids of GKAP1a fused to GST; not shown: glutathione S-transferase fusion partner) MDPLDKKERRAPPPVPKKPAKGPAPLIRERSLESSQRQEARKRLMAAKRAASVRQNSATESAESIEIYIPEAQTRL",binding result,[2],no binding
"recombinant mGluR5 carboxy-terminal 241 amino acid peptide (receptor, UniProt P31424 963-1203, looked up, domain: carboxy-terminal 241 amino acids; Expressed in heterologous cells for GST pulldown; also called mGluR5 carboxy-terminal tail; mGluR5 C-terminal tail) AAGGGSGPGVAGAGNAGCTATGGPEPPDAGPKALYDVAEAEESFPAAARPRSPSPISTLSHLAGSAGRTDDDAPSLHSETAARSSSSQGSLMEQISSVVTRFTANISELNSMMLSTAATPGPPGTPICSSYLIPKEIQLPTTMTTFAEIQPLPAIEVTGGAQGATGVSPAQETPTGAESAPGKPDLEELVALTPPSPFRDSVDSGSTTPNSPVSESALCIPSSPKYDTLIIRDYTQSSSSL",binding result,[3],no binding
same,binding result,[4],no binding
